In assay [1] the target is rat CLDN18 (rat) (UniProt Q5I0E5). The experiment in a line: flow cytometry; HEK293T rat CLDN18 moxGFP Clone5, 0.1ug; control HEK293T parental 0.1ug 3,276.00.
In assay [2] the target is Claudin-18.1 (CLDN18.1) (human) (UniProt P56856). The experiment in a line: flow cytometry; HEK293T human CLDN18.1 mGFP 2B14, 1ug; control HEK293T parental 1ug 5,328.00.
The target of assay [3] is rat CLDN18 (rat) (UniProt Q5I0E5). The experiment in a line: flow cytometry; HEK293T rat CLDN18 moxGFP Clone5, 1ug; control HEK293T parental 1ug 5,328.00.
In assay [4] the target is Claudin-18.1 (CLDN18.1) (human) (UniProt P56856). The experiment in a line: flow cytometry; HEK293T human CLDN18.1 mGFP 2B14, 10ug; control HEK293T parental 10ug 12,759.00.
Assay [5] concerns the target rat CLDN18 (rat) (UniProt Q5I0E5). As to the kind of experiment: flow cytometry; HEK293T rat CLDN18 moxGFP Clone5, 10ug; control HEK293T parental 10ug 12,759.00.
Assay [6] addresses dogCLDN18 (Canis lupus familiaris). As to the kind of experiment: flow cytometry; HEK293T dogCLDN18 moxGFP mass pop, 0.1ug; control HEK293T parental 0.1ug 3,276.00.
Assay [7] concerns the target Claudin-18.1 (CLDN18.1) (human) (UniProt P56856). The experiment in a line: flow cytometry; HEK293T human CLDN18.1 mGFP 2B14, 0.1ug; control HEK293T parental 0.1ug 3,276.00.
Assay [8] has as its target dogCLDN18 (Canis lupus familiaris). The experiment in a line: flow cytometry; HEK293T dogCLDN18 moxGFP mass pop, 1ug; control HEK293T parental 1ug 5,328.00.
For assay [9] the target is unchanged. The experiment in a line: flow cytometry; HEK293T dogCLDN18 moxGFP mass pop, 10ug; control HEK293T parental 10ug 12,759.00.
For assay [10] the target is unchanged. As to the kind of experiment: flow cytometry; HEK293T dogCLDN18 moxGFP mass pop, 10ug; control HEK293T parental 10ug 22,390.50.
Assay [11] deals with rat CLDN18 (rat) (UniProt Q5I0E5). As to the kind of experiment: flow cytometry; HEK293T rat CLDN18 moxGFP Clone5, 0.1ug; control HEK293T parental 0.1ug 2,726.00.
Assay [12] concerns the target Claudin-18.1 (CLDN18.1) (human) (UniProt P56856). As to the kind of experiment: flow cytometry; HEK293T human CLDN18.1 mGFP 2B14, 0.1ug; control HEK293T parental 0.1ug 2,726.00.
Assay [13] shares this target. The experiment in a line: flow cytometry; HEK293T human CLDN18.1 mGFP 2B14, 1ug; control HEK293T parental 1ug 9,051.00.
Assay [14] deals with dogCLDN18 (Canis lupus familiaris). As to the kind of experiment: flow cytometry; HEK293T dogCLDN18 moxGFP mass pop, 0.1ug; control HEK293T parental 0.1ug 2,726.00.
Assay [15] addresses rat CLDN18 (rat) (UniProt Q5I0E5). As to the kind of experiment: flow cytometry; HEK293T rat CLDN18 moxGFP Clone5, 1ug; control HEK293T parental 1ug 9,051.00.
For assay [16], the target named is Claudin-18.1 (CLDN18.1) (human) (UniProt P56856). As to the kind of experiment: flow cytometry; HEK293T human CLDN18.1 mGFP 2B14, 10ug; control HEK293T parental 10ug 22,390.50.
The target in assay [17] is rat CLDN18 (rat) (UniProt Q5I0E5). As to the kind of experiment: flow cytometry; HEK293T rat CLDN18 moxGFP Clone5, 10ug; control HEK293T parental 10ug 22,390.50.
Assay [18] deals with dogCLDN18 (Canis lupus familiaris). As to the kind of experiment: flow cytometry; HEK293T dogCLDN18 moxGFP mass pop, 1ug; control HEK293T parental 1ug 9,051.00.
For assay [19] the target is unchanged. The experiment in a line: flow cytometry; HEK293T dogCLDN18 moxGFP mass pop, 0.1ug; control HEK293T parental 0.1ug 3,268.00.
Assay [20] deals with Claudin-18.1 (CLDN18.1) (human) (UniProt P56856). The experiment in a line: flow cytometry; HEK293T human CLDN18.1 mGFP 2B14, 0.1ug; control HEK293T parental 0.1ug 3,268.00.
For assay [21] the target is unchanged. As to the kind of experiment: flow cytometry; HEK293T human CLDN18.1 mGFP 2B14, 1ug; control HEK293T parental 1ug 4,198.00.
For assay [22], the target named is dogCLDN18 (Canis lupus familiaris). The experiment in a line: flow cytometry; HEK293T dogCLDN18 moxGFP mass pop, 10ug; control HEK293T parental 10ug 16,812.50.
For assay [23], the target named is rat CLDN18 (rat) (UniProt Q5I0E5). As to the kind of experiment: flow cytometry; HEK293T rat CLDN18 moxGFP Clone5, 0.1ug; control HEK293T parental 0.1ug 3,268.00.
The target in assay [24] is dogCLDN18 (Canis lupus familiaris). The experiment in a line: flow cytometry; HEK293T dogCLDN18 moxGFP mass pop, 1ug; control HEK293T parental 1ug 4,198.00.
The target of assay [25] is rat CLDN18 (rat) (UniProt Q5I0E5). The experiment in a line: flow cytometry; HEK293T rat CLDN18 moxGFP Clone5, 10ug; control HEK293T parental 10ug 16,812.50.
Assay [26] deals with Claudin-18.1 (CLDN18.1) (human) (UniProt P56856). The experiment in a line: flow cytometry; HEK293T human CLDN18.1 mGFP 2B14, 10ug; control HEK293T parental 10ug 16,812.50.
Assay [27] has as its target rat CLDN18 (rat) (UniProt Q5I0E5). The experiment in a line: flow cytometry; HEK293T rat CLDN18 moxGFP Clone5, 1ug; control HEK293T parental 1ug 4,198.00.
Assay [28] has as its target dogCLDN18 (Canis lupus familiaris). The experiment in a line: flow cytometry; HEK293T dogCLDN18 moxGFP mass pop, 0.1ug; control HEK293T parental 0.1ug 3,589.50.
Assay [29] concerns the target Claudin-18.1 (CLDN18.1) (human) (UniProt P56856). The experiment in a line: flow cytometry; HEK293T human CLDN18.1 mGFP 2B14, 0.1ug; control HEK293T parental 0.1ug 3,589.50.
Assay [30] has as its target rat CLDN18 (rat) (UniProt Q5I0E5). The experiment in a line: flow cytometry; HEK293T rat CLDN18 moxGFP Clone5, 1ug; control HEK293T parental 1ug 8,287.00.
Assay [31] deals with dogCLDN18 (Canis lupus familiaris). The experiment in a line: flow cytometry; HEK293T dogCLDN18 moxGFP mass pop, 1ug; control HEK293T parental 1ug 8,287.00.
Assay [32] deals with rat CLDN18 (rat) (UniProt Q5I0E5). The experiment in a line: flow cytometry; HEK293T rat CLDN18 moxGFP Clone5, 0.1ug; control HEK293T parental 0.1ug 3,589.50.
For assay [33], the target named is dogCLDN18 (Canis lupus familiaris). As to the kind of experiment: flow cytometry; HEK293T dogCLDN18 moxGFP mass pop, 10ug; control HEK293T parental 10ug 29,683.50.
In assay [34] the target is rat CLDN18 (rat) (UniProt Q5I0E5). As to the kind of experiment: flow cytometry; HEK293T rat CLDN18 moxGFP Clone5, 10ug; control HEK293T parental 10ug 29,683.50.
Assay [35] addresses Claudin-18.1 (CLDN18.1) (human) (UniProt P56856). The experiment in a line: flow cytometry; HEK293T human CLDN18.1 mGFP 2B14, 10ug; control HEK293T parental 10ug 29,683.50.
Assay [36] shares this target. The experiment in a line: flow cytometry; HEK293T human CLDN18.1 mGFP 2B14, 1ug; control HEK293T parental 1ug 8,287.00.

Residue numbers refer to the chain shown, from its start.

Sequence of Claudin-18.1 (CLDN18.1) (human) (P56856 whole entry): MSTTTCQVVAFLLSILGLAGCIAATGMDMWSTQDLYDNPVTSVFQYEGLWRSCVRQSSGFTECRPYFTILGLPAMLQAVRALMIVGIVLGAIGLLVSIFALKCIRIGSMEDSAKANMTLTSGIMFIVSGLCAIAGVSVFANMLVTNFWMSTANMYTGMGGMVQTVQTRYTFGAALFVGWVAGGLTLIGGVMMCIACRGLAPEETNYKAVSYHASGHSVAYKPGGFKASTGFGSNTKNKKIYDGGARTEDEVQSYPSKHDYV
Sequence of rat CLDN18 (rat) (Q5I0E5 whole entry): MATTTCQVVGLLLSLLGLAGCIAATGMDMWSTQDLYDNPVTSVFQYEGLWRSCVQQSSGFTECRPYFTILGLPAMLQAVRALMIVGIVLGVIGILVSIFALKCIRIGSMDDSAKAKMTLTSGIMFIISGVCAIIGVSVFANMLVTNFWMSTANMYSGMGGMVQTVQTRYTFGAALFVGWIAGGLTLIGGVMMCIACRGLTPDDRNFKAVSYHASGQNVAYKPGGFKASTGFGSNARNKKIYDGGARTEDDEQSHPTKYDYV

B1: HuAb307-3 (antibody, V domains shown)
VH: EVQLLESGGGLVQPGGSLRLSCAASGFTFSSYTMSWVRQAPGKGLEWVATIIIGGSYTYYADSVKGRFTISRDNSKNTLYLQMNSLRAEDTAVYYCTRLVKGNAMDYWGQGTLVTVSS
VL: DIVMTQSPDSLAVSLGERVTMNCKSSQSLLNSGNQKNYLSWYQQKPGQPPKLLFYWASTRESGVPDRFSGSGSGTDFTLTISSVQAEDVAVYYCQNDYSYPFTFGQGTKLEIK
With B1, the flow cytometry signal in [1] is 3810; in assay [2] it was 54100; in assay [3], 7320; in assay [4], 76900; in assay [5], 13800; in assay [6], 3860. The figures for the flow cytometry signal in assay [7], in assay [8] and in assay [9] were 52100, 6030 and 10200, respectively.

B2: 02-0307-h6 (antibody, V domains shown)
VH: B1 VH
VL: B1 VL with N31S
Regarding B2, the flow cytometry signal in assay [10] is 21800; in [11] it was 3600; in [12] it was 53100; in [13], 68800; in [14], 3690; in [15], 10900. Further, the flow cytometry signal was 156000 in [16], 30700 in [17] and 9480 in assay [18].

B3: 02-0358-h3 (antibody, V domains shown)
VH: EVQLVESGGGLVQPGGSLRLSCAVSGFTFSSFGMHWVRQAPGKGLEWVAYISSGTTNIYYADSVKGRFTVSRDNAKNSLYLQMNSLRAEDTAVYYCVRSGYYGNSLDYWGQGTLVTVSS
VL: B1 VL with L30F, K36R, S40T, F54I, D97V, S99I, F102L
In the case of B3, the flow cytometry signal came out at 3700 in [19]; 50400 in assay [20]; 55200 in [21]; 11700 in assay [22]; 3720 in [23]; 4230 in [24]. Also, the flow cytometry signal in [25] was found to be 16700; in assay [26], 99100; in assay [27], 5070.

B4: 02-0358-h5 (antibody, V domains shown)
VH: B3 VH
VL: B1 VL with L30F, N31S, K36R, S40T, F54I, D97V, S99I, F102L
B4: the flow cytometry signal in [28] stood at 4700; in [29], 52700; in assay [30], 12400; in [31], 8760; in assay [32], 4580; in [33] it was 20600. Also, the flow cytometry signal in assay [34] was found to be 31200; in assay [35], 140000; in assay [36], 64800.

Values taken from patent publication US11834499.
